For this experiment, the system named is primary neurons. Nature of the experiment: Filipin staining of primary neurons. As to conditions: about 5 h. In kind it is cell-based, rat. On the procedure:
Leptin was detected using a rabbit polyclonal antibody raised against mouse leptin, corss-reacting with human leptin (obtained from Dr. A. F. Parlow, Harbor-UCLA, CA). Immunofluorescent confocal microscopy was performed on 2% paraformaldehyde-fixed primary neural cells. Filipin staining was performed as described (Feng et al., Nat Cell Biol. 5:781-92 (2003)).
Neural cultures from ε15 rat cerebral cortex were processed for enrichment of neurons (a-d) or astrocytes (e-h) as described (Takeshima et al., J. Neurosci. Methods 67: 27-41 (1996)). After about 7 days to about 10 days in culture, cultures were treated for about 5 h with about 10 μg/ml cholesterol (b, f) or about 400 ng/ml leptin plus cholesterol (c, g) or leptin alone (d, h). Controls (a, e) were treated with culture media alone. Filipin staining was performed as described (Feng et al., Nat. Cell Biol. 5: 781-92 (2003)). Neurons (i-k) and astrocytes (l-n) prepared as above were treated with 0 μM (i, l), 5 μM (j, m) or 10 μM cholesterol (k, n) for 5 h. Immunostaining was performed for leptin (A.F.Parlow, Harbor-UCLA, CA).

B1: Leptin: peptide hormone controlling adaptive metabolic mechanisms to energy availability; leptin (Harbor-UCLA) in vitro, recombinant murine leptin in mice (protein, UniProt P41160 22-167, looked up)
Leptin: VPIQKVQDDTKTLIKTIVTRINDISHTQSVSAKQRVTGLDFIPGLHPILSLSKMDQTLAVYQQVLTSLPSQNVLQIANDLENLRDLLHLLAFSKSCSLPQTSGLQKPESLDGVLEASLYSTEVVALSRLQGSLQDILQQLDVSPEC
Regarding B1, for the setting “neurons, leptin about 400 ng/ml plus cholesterol about 10 μg/ml”, the “increase in filipin labelling by cholesterol” value is listed as “prohibited an increase”. The filipin labelling entry (primary neurons, about 400 ng/ml leptin) is on record as “diminished filipin labelling”.

These data come from patent US8227408B2, “Leptin as an anti-amyloidogenic biologic and methods for delaying the onset and reducing Alzheimer's disease-like pathology” (Neurotez, Inc., priority 2005, dated 2012).
